# T1: APBA1_1, Q02410
# T1 sequence (Q02410 651-752, limits assumed, looked up): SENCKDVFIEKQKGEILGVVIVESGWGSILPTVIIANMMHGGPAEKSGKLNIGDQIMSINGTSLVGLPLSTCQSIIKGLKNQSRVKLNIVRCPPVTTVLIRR
# T2: APBA2_2, Q99767
# T2 sequence (Q99767 654-744, limits assumed, looked up): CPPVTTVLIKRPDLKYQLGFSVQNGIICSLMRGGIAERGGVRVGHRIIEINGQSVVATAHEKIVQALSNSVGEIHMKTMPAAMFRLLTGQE
# T3: ARHGEF11, O15085
# T3 sequence (O15085 42-136, limits assumed, looked up): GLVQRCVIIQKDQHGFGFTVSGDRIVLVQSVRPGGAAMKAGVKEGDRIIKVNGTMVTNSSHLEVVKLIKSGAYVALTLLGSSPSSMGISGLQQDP
# T4: CARD11, Q9BXL7
# T4 sequence (Q9BXL7 662-765, limits assumed, looked up): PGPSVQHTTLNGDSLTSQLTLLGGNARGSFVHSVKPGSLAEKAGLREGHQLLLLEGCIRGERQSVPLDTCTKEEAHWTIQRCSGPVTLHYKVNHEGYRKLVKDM
# T5: DLG3_1, Q92796
# T5 sequence (Q92796 125-227, limits assumed, looked up): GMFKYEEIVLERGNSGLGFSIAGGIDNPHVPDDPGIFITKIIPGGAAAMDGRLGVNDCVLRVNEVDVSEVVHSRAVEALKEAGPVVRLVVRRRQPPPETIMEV
# T6: GRIP1_2, Q9Y3R0
# T6 sequence (Q9Y3R0 145-248, limits assumed, looked up): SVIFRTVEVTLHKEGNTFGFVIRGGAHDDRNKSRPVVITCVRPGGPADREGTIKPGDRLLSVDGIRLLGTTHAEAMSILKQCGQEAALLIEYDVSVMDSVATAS
# T7: LNX2_2, Q8N448
# T7 sequence (Q8N448 334-432, limits assumed, looked up): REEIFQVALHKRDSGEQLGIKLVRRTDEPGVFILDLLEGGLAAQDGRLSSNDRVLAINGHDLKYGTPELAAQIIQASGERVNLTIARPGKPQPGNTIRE
# T8: MPDZ_5, O75970
# T8 sequence (O75970 695-796, limits assumed, looked up): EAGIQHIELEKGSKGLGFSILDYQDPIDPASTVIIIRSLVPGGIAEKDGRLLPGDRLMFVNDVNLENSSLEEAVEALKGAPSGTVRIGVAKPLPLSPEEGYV
# T9: MPP2, Q14168
# T9 sequence (Q14168 180-250, limits assumed, looked up): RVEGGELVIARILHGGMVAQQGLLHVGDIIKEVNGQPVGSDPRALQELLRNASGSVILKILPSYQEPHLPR
# T10: RADIL, Q96JH8
# T10 sequence (Q96JH8 971-1071, limits assumed, looked up): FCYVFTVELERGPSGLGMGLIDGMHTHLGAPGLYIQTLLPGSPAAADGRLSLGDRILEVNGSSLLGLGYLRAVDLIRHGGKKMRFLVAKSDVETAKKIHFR
# T11: SNTB1, Q13884
# T11 sequence (Q13884 107-205, limits assumed, looked up): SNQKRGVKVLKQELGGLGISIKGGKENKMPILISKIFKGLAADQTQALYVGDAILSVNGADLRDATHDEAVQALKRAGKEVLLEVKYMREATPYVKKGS
# T12: TX1BP3, O14907
# T12 sequence (O14907 10-122, limits assumed, looked up): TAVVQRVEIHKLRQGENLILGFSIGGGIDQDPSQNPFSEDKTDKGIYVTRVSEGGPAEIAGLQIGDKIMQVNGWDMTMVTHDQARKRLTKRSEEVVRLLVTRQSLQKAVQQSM
# Tests used:
# Assay in all cases: holdup assay
# Parameters in all cases: key: below the threshold = too weak to quantify, mostly under pKd 3.1 to 4
# Details in all cases: plain residues with an end cap or a label only (N-terminal biotin on a linker: ado-ado)
# AHNAK1, Q09666 = molecular target: AHNAK1, Q09666
# AHNAK1, Q09666, sequence (Q09666 4-100): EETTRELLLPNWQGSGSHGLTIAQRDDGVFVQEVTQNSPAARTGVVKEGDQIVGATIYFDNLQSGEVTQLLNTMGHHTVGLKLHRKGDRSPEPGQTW
# APBA1_1, Q02410 = molecular target: T1, APBA1_1, Q02410
# APBA2_2, Q99767 = molecular target: T2, APBA2_2, Q99767
# ARHGEF11, O15085 = molecular target: T3, ARHGEF11, O15085
# CARD11, Q9BXL7 = molecular target: T4, CARD11, Q9BXL7
# DLG1_1, Q12959 = molecular target: DLG1_1, Q12959
# DLG1_3, Q12959 = molecular target: DLG1_3, Q12959
# DLG2_3, Q15700 = molecular target: DLG2_3, Q15700
# DLG3_1, Q92796 = molecular target: T5, DLG3_1, Q92796
# DLG4_2, P78352 = molecular target: DLG4_2, P78352
# DLG4_2, P78352, sequence (P78352 155-259): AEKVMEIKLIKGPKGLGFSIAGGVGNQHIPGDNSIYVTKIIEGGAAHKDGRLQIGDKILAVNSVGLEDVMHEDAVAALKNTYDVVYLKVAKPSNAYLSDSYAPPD
# GRIP1_2, Q9Y3R0 = molecular target: T6, GRIP1_2, Q9Y3R0
# Inadl_10, Q8NI35 = molecular target: Inadl_10, Q8NI35
# Inadl_10, Q8NI35, sequence (Q8NI35 1673-1763): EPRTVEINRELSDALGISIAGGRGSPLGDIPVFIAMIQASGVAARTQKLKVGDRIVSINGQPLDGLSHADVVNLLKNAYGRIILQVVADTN
# LAP2, Q96RT1 = molecular target: LAP2, Q96RT1
# LAP2, Q96RT1, sequence (Q96RT1 other isoform, or with tags, fused parts or gaps): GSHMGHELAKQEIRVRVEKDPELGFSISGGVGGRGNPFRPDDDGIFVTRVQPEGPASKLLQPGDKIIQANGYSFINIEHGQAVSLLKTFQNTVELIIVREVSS
# LNX1_2, Q8TBB1 = molecular target: LNX1_2, Q8TBB1
# LNX1_2, Q8TBB1, sequence (Q8TBB1 371-470): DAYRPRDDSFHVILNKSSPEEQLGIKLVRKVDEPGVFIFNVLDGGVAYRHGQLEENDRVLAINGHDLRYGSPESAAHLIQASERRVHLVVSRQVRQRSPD
# LNX2_2, Q8N448 = molecular target: T7, LNX2_2, Q8N448
# MAGI2_4, Q86UL8 = molecular target: MAGI2_4, Q86UL8
# MAGI2_4, Q86UL8, sequence (Q86UL8 772-865): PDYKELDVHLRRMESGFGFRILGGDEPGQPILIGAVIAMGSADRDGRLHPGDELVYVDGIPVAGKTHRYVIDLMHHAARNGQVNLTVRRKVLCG
# MAGI3_2, Q5TCQ9 = molecular target: MAGI3_2, Q5TCQ9
# MAGI3_2, Q5TCQ9, sequence (Q5TCQ9 398-503): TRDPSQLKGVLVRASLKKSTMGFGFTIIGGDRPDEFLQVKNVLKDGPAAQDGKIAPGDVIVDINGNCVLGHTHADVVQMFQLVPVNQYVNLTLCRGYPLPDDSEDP
# MPDZ_5, O75970 = molecular target: T8, MPDZ_5, O75970
# MPP2, Q14168 = molecular target: T9, MPP2, Q14168
# PDZRN4_1, Q6ZMN7 = molecular target: PDZRN4_1, Q6ZMN7
# PDZRN4_1, Q6ZMN7, sequence (Q6ZMN7 213-318): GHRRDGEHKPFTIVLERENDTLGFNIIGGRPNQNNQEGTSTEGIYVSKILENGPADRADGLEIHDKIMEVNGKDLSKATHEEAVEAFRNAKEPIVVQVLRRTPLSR
# PICK1, Q9NRD5 = molecular target: PICK1, Q9NRD5
# PICK1, Q9NRD5, sequence (Q9NRD5 17-115): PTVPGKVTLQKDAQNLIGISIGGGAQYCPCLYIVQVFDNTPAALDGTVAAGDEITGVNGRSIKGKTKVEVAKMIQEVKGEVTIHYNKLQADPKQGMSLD
# RADIL, Q96JH8 = molecular target: T10, RADIL, Q96JH8
# SNTB1, Q13884 = molecular target: T11, SNTB1, Q13884
# TJP1_2, Q07157 = molecular target: TJP1_2, Q07157
# TJP1_2, Q07157, sequence (Q07157 181-274): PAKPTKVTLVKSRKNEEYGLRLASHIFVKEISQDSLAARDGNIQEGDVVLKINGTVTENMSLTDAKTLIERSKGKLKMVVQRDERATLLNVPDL
# TJP2_1, Q9UDY2 = molecular target: TJP2_1, Q9UDY2
# TJP2_1, Q9UDY2, sequence (Q9UDY2 24-128): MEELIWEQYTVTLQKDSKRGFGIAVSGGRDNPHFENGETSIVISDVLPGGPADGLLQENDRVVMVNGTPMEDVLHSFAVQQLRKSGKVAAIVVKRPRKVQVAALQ
# TX1BP3, O14907 = molecular target: T12, TX1BP3, O14907
Binder,"pKd (AHNAK1, Q09666)","pKd (APBA1_1, Q02410)","pKd (APBA2_2, Q99767)","pKd (ARHGEF11, O15085)","pKd (CARD11, Q9BXL7)","pKd (DLG1_1, Q12959)","pKd (DLG1_3, Q12959)","pKd (DLG2_3, Q15700)","pKd (DLG3_1, Q92796)","pKd (DLG4_2, P78352)","pKd (GRIP1_2, Q9Y3R0)","pKd (Inadl_10, Q8NI35)","pKd (LAP2, Q96RT1)","pKd (LNX1_2, Q8TBB1)","pKd (LNX2_2, Q8N448)","pKd (MAGI2_4, Q86UL8)","pKd (MAGI3_2, Q5TCQ9)","pKd (MPDZ_5, O75970)","pKd (MPP2, Q14168)","pKd (PDZRN4_1, Q6ZMN7)",also measured
"QHKTQLQTLI [BPIFA2, Q96DR5]",below the threshold,below the threshold,below the threshold,3.7,below the threshold,4.34,3.68,below the threshold,3.68,4.56,below the threshold,below the threshold,below the threshold,below the threshold,4,4.05,4.54,below the threshold,below the threshold,below the threshold,"pKd (PICK1, Q9NRD5): below the threshold; pKd (RADIL, Q96JH8): 3.91; pKd (SNTB1, Q13884): 3.49; pKd (TJP1_2, Q07157): below the threshold; pKd (TJP2_1, Q9UDY2): 3.66; pKd (TX1BP3, O14907): 3.79"
"DDPSTAETVL [ABCA7, Q8IZY2]",below the threshold,below the threshold,below the threshold,3.98,below the threshold,below the threshold,below the threshold,3.88,below the threshold,3.7,below the threshold,below the threshold,3.71,below the threshold,below the threshold,below the threshold,below the threshold,below the threshold,below the threshold,4.66,"pKd (PICK1, Q9NRD5): below the threshold; pKd (RADIL, Q96JH8): 3.52; pKd (SNTB1, Q13884): 4.87; pKd (TJP1_2, Q07157): below the threshold; pKd (TJP2_1, Q9UDY2): below the threshold; pKd (TX1BP3, O14907): below the threshold"
"LSEFKAMDSI [CTNNA1, P35221]",below the threshold,below the threshold,below the threshold,below the threshold,below the threshold,below the threshold,below the threshold,below the threshold,below the threshold,below the threshold,below the threshold,below the threshold,below the threshold,below the threshold,below the threshold,below the threshold,below the threshold,below the threshold,below the threshold,below the threshold,"pKd (PICK1, Q9NRD5): 4.08; pKd (RADIL, Q96JH8): below the threshold; pKd (SNTB1, Q13884): below the threshold; pKd (TJP1_2, Q07157): below the threshold; pKd (TJP2_1, Q9UDY2): below the threshold; pKd (TX1BP3, O14907): 3.47"

# Further lines, with some results ahead:
"pKd (AHNAK1, Q09666)","pKd (APBA1_1, Q02410)","pKd (APBA2_2, Q99767)","pKd (ARHGEF11, O15085)","pKd (CARD11, Q9BXL7)","pKd (DLG1_1, Q12959)","pKd (DLG1_3, Q12959)","pKd (DLG2_3, Q15700)","pKd (DLG3_1, Q92796)","pKd (DLG4_2, P78352)","pKd (GRIP1_2, Q9Y3R0)","pKd (Inadl_10, Q8NI35)","pKd (LAP2, Q96RT1)","pKd (LNX1_2, Q8TBB1)","pKd (LNX2_2, Q8N448)","pKd (MAGI2_4, Q86UL8)","pKd (MAGI3_2, Q5TCQ9)","pKd (MPDZ_5, O75970)","pKd (MPP2, Q14168)","pKd (PDZRN4_1, Q6ZMN7)",Binder,also measured
below the threshold,below the threshold,below the threshold,below the threshold,below the threshold,below the threshold,below the threshold,4.16,below the threshold,4.11,below the threshold,below the threshold,4.11,3.75,5,3.71,4.04,4.06,below the threshold,below the threshold,"HLRARKSEWV [GJD4, Q96KN9]","pKd (PICK1, Q9NRD5): below the threshold; pKd (RADIL, Q96JH8): 4.85; pKd (SNTB1, Q13884): below the threshold; pKd (TJP1_2, Q07157): 4.97; pKd (TJP2_1, Q9UDY2): 6.04; pKd (TX1BP3, O14907): below the threshold"
below the threshold,below the threshold,below the threshold,4.21,below the threshold,below the threshold,below the threshold,3.73,below the threshold,3.7,below the threshold,below the threshold,below the threshold,5.3,5.42,below the threshold,below the threshold,below the threshold,below the threshold,below the threshold,"VDSTVKVWTC [TRAF7, Q6Q0C0]","pKd (PICK1, Q9NRD5): below the threshold; pKd (RADIL, Q96JH8): 4.2; pKd (SNTB1, Q13884): below the threshold; pKd (TJP1_2, Q07157): below the threshold; pKd (TJP2_1, Q9UDY2): below the threshold; pKd (TX1BP3, O14907): below the threshold"
